The target in this assay is acetylcholine receptor. The experiment in a line: SPR, AchR immobilized on CM5 chip, peptide at 10 uM. A general note: Surface plasmon resonance follows binding to a sensor surface in real time, without labels.

In the case of KMCAK [5mer-1009], the Binding affinity (RU) was 29 RU. Next, KPKAR [5mer-708]: 20 RU; KPCGK [5mer-1001]: 33 RU. Next, KTKFK [5mer-999]: 19 RU. The molecule KEPER [5mer-1006] had a Binding affinity (RU) of 17 RU. For KKNER [5mer-699] the value was 12 RU; for RMTVR [5mer-1003], 11 RU; for KHCWR [5mer-1000], 20 RU. For KIEAK [5mer-707] the value was 32 RU; for RQIRRR [6mer-2-400], 154 RU; for KEKAR [5mer-710], 21 RU. For RNHNK [5mer-701] the value was 22 RU. Regarding RDMMR [5mer-1007], the Binding affinity (RU) came out at 30 RU. For KECIK [5mer-711] the value was 32 RU. For RFMGK [5mer-704] the value was 28 RU; for RHTIR [5mer-709], 27 RU; for KPNWR [5mer-703], 22 RU. For RAWER [5mer-700], the Binding affinity (RU) was determined as 17 RU. With RDADR [5mer-1004], the Binding affinity (RU) is 30 RU. Consider KCDNK [5mer-1010], for which the Binding affinity (RU) turned out to be 16 RU. Next, KISHK [5mer-702]: 30 RU. Next, KDSNR [5mer-1008]: 11 RU. Next, RKMAK [5mer-706]: 27 RU; RTHGR [5mer-1005]: 30 RU.

In the case of RHAKK [5mer-705], the Binding affinity (RU) was 15 RU. For RSILRK [6mer-2-401] the value was 153 RU; for KEDNK [5mer-1002], 12 RU; for RWLTRR [6mer-2-399], 148 RU.
